What was measured:
Assay in all cases: cell-based or functional assay
human MET on cells [1] = target: T1, human MET on cells (human, UniProt P08581 25-1390); for % Inhibition, HEK293/SRE-Luc Blocking Activity (HGF, 1 h mAb pre-bind): test concentration or dose not given here
human MET on cells [2] = target: T1, human MET on cells; remark: listed apart in the source; for % Inhibition, HEK293/SRE-Luc Blocking Activity (HGF, 1 h mAb pre-bind): test concentration or dose not given here
human MET on cells [3] = target: T1, human MET on cells; remark: listed apart in the source; for % Inhibition, HEK293/SRE-Luc Blocking Activity (HGF, 1 h mAb pre-bind): test concentration or dose not given here

T1 sequence (P08581 25-1390 limits assumed, form in doubt): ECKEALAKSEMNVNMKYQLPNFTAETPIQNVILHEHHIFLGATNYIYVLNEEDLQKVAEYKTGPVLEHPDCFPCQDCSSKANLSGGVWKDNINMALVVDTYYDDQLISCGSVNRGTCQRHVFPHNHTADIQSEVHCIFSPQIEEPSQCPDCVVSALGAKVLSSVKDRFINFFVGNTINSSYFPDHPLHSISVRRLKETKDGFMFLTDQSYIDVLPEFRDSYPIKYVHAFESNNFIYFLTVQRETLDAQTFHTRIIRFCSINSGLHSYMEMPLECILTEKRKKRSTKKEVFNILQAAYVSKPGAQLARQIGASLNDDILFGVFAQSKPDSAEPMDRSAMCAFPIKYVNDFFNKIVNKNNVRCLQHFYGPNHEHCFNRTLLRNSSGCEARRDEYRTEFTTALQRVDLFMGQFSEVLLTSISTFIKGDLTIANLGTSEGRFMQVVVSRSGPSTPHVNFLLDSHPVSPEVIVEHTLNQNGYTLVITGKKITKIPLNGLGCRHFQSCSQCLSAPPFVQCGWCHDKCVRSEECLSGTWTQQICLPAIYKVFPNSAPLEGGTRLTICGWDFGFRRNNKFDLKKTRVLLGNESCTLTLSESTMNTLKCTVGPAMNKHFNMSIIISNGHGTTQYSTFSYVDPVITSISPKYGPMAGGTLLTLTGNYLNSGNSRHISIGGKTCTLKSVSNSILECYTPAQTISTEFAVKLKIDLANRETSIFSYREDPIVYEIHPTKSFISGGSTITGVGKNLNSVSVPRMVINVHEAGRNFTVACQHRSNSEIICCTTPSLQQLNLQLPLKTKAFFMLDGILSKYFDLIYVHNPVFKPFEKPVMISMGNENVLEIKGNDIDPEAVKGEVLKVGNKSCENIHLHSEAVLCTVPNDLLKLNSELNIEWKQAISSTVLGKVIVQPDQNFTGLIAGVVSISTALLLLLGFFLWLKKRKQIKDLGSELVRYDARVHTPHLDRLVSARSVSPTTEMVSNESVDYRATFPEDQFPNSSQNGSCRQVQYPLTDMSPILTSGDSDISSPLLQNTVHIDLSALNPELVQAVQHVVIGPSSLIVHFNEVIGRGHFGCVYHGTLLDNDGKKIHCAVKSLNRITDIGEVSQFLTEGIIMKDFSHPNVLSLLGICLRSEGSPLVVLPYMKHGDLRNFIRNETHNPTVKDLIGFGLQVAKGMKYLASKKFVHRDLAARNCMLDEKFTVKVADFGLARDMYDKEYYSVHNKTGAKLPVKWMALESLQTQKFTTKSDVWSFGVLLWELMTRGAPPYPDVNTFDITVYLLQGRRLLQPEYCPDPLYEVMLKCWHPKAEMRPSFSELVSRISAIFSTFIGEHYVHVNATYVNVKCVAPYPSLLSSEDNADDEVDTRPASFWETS

B1: H4H14635D-Maytansinoid B (bispecific antibody, V domains shown)
VH 1: QVQLVESGGGVVQPGRSLRVSCVVSGFTFSSFGMHWVRQAPDKGLEWVAVIWYDGSNDYYSDSVKGRFTISRDNSKNTLFLQMNRLRAEDTAVYYCARANNWNRFDAFDLWGQGTMVTVSS
VH 2: EVQLVESGGGLVQPGGSLRLSCAASGFIVTTNYMTWLRQAPGKGLEWVSLIYSSGHTYYADSVKGRFTISRHNSKNTLYLQMDSLRAEDTAVYYCASAFAADVFDIWGQGTMVTVSS
VL: not shown
modifications: Maytansinoid B (Compound 1, FIG. 20) linker-payload conjugated to the antibody; residues not stated
In the case of B1, the “IC50, 6-day in vitro cytotoxicity, A549” value (human MET on cells [1]) is reported as 21.4 nM, the “IC50, 6-day in vitro cytotoxicity, EBC-1” value (human MET on cells [1]) is reported as 0.26 nM and the “IC50, 6-day in vitro cytotoxicity, Hs746t” value (human MET on cells [1]) is reported as 2.32 nM. For the same binder, the “Max % Kill, 6-day in vitro cytotoxicity, A549” value (human MET on cells [1]) was 72%, the “Max % Kill, 6-day in vitro cytotoxicity, EBC-1” value (human MET on cells [1]) was 96% and the “Max % Kill, 6-day in vitro cytotoxicity, Hs746t” value (human MET on cells [1]) was 89%.

B2: H4H13313P2 (antibody, human IgG4, V domains shown)
VH: QVQLVESGGGVVQPGRSLRLSCSASGFSFSHFGMHWVRQVPGGGLEWVTSIWFDGSNRYYADSLKGRFTISRDNSKNTLYLEMNSLRAEDTAVYYCVREGILGTTNPYDVFDVWGQGTMVTVSS
VL: not shown
B2 was tested, and the “% Inhibition, HEK293/SRE-Luc Blocking Activity (HGF, 1 h mAb pre-bind)” value (human MET on cells [2]) was 47%, the “Fold Response, Ligand (HGF)-Independent HEK293/SRE-Luc Activation” value (human MET on cells [2]) was 1.2 fold and the “IC50, HEK293/SRE-Luc Blocking Activity (HGF, 1 h mAb pre-bind)” value (“IC50, HEK293/SRE-Luc Blocking Activity” for short) (human MET on cells [2]) was 2.3 nM. The “% Growth Inhibition, SNU5 cells” value (human MET on cells [3]) was 34% and the “IC50, SNU5 growth” value (human MET on cells [3]) was 0.044 nM.

B3: H4H13301P2 (antibody, human IgG4, V domains shown)
VH: QVQLVESGGGVVQPGTSLRLSCVASGFTFRNFGMHWVRQAPGKGLEWVANIWFDGSNENYVESIQGRFTISRDNSKNTLNLQMNSLRAEDSAVYYCVREGILGTTNPYDAFDVWGQGTMVTVSS
VL: not shown
For B3, the “% Inhibition, HEK293/SRE-Luc Blocking Activity (HGF, 1 h mAb pre-bind)” value (human MET on cells [2]) was 40%, the “Fold Response, Ligand (HGF)-Independent HEK293/SRE-Luc Activation” value (human MET on cells [2]) was 1.6 fold and the “IC50, HEK293/SRE-Luc Blocking Activity” value (human MET on cells [2]) was 1.5 nM. The “% Growth Inhibition, SNU5 cells” value (human MET on cells [3]) was 33% and the “IC50, SNU5 growth” value (human MET on cells [3]) was 0.074 nM.

B4: H1H13301P2 (antibody, IgG1, V domains shown)
VH: QVQLVESGGGVVQPGTSLRLSCVASGFTFRNFGMHWVRQAPGKGLEWVANIWFDGSNENYVESIQGRFTISRDNSKNTLNLQMNSLRAEDSAVYYCVREGILGTTNPYDAFDVWGQGTMVTVSS
VL: not shown
With B4 the “% Inhibition, HEK293/SRE-Luc Blocking Activity (HGF, 1 h mAb pre-bind)” value (human MET on cells [2]) was 42%, the “Fold Response, Ligand (HGF)-Independent HEK293/SRE-Luc Activation” value (human MET on cells [2]) was 1.4 fold and the “IC50, HEK293/SRE-Luc Blocking Activity” value (human MET on cells [2]) was 3.3 nM. For the same binder, the “% Growth Inhibition, SNU5 cells” value (human MET on cells [3]) was 33% and the “IC50, SNU5 growth” value (human MET on cells [3]) was 0.1 nM.

B5: H4H13319P2 (antibody, human IgG4, V domains shown)
VH: QVQLVESGGGVVQPGRSLRLSCAASGFTFSSFAMHWVRQAPGKGLEWVAVIWYDGSNDYYAASVKGRFTISRDNSKNTLYLEMNRLRAEDTAVYHCARDNWNYWGGMDVWGQGTTVTVSS
VL: not shown
For B5, the “% Inhibition, HEK293/SRE-Luc Blocking Activity (HGF, 1 h mAb pre-bind)” value (human MET on cells [2]) was 67%, the “EC50, Ligand (HGF)-Independent HEK293/SRE-Luc Activation” value (human MET on cells [2]) was 0.18 nM and the “Fold Response, Ligand (HGF)-Independent HEK293/SRE-Luc Activation” value (human MET on cells [2]) was 4.8 fold. The “IC50, HEK293/SRE-Luc Blocking Activity” value (human MET on cells [2]) was 0.052 nM, the “% Growth Inhibition, SNU5 cells” value (human MET on cells [3]) was 23% and the “IC50, SNU5 growth” value (human MET on cells [3]) was 0.1 nM.

B6: H4H13311P2 (antibody, human IgG4, V domains shown)
VH: QVQLVESGGGVVQPGRSLRLSCAASGFTFSSYAMHWVRQAPGRGLEWVAVIWHDGDVEYYVDSVKDRFTISRDNSKSTLYLQMNSLRAEDTALYYCAREAWDLLRPFDYWGQGTLVTVSS
VL: not shown
With B6 the “% Inhibition, HEK293/SRE-Luc Blocking Activity (HGF, 1 h mAb pre-bind)” value (human MET on cells [2]) was 62%, the “EC50, Ligand (HGF)-Independent HEK293/SRE-Luc Activation” value (human MET on cells [2]) was 0.3 nM and the “Fold Response, Ligand (HGF)-Independent HEK293/SRE-Luc Activation” value (human MET on cells [2]) was 5.2 fold. The “IC50, HEK293/SRE-Luc Blocking Activity” value (human MET on cells [2]) was 0.035 nM and the “% Growth Inhibition, SNU5 cells” value (human MET on cells [3]) was 8%.

B7: H4H13290P2 (antibody, human IgG4, V domains shown)
VH: QVQLQESGPGLVKPSETLSLTCTVSGDSISSYYWTWIRQPPGKGLEWIGYIFYRGGTTYNPSLKSRVTISVDTSKNQFSLKLRSVTAADTAVYYCARGDDLLVVTSVYWYIDLWGRGTLVTVSS
VL: not shown
In the case of B7, the “% Inhibition, HEK293/SRE-Luc Blocking Activity (HGF, 1 h mAb pre-bind)” value (human MET on cells [2]) is reported as 56%, the “EC50, Ligand (HGF)-Independent HEK293/SRE-Luc Activation” value (human MET on cells [2]) is reported as < 0.002 nM and the “Fold Response, Ligand (HGF)-Independent HEK293/SRE-Luc Activation” value (human MET on cells [2]) is reported as 9.8 fold. For the same binder, the “IC50, HEK293/SRE-Luc Blocking Activity” value (human MET on cells [2]) was < 0.002 nM and the “% Growth Inhibition, SNU5 cells” value (human MET on cells [3]) was 12%.

B8: H4H13316P2 (antibody, human IgG4, V domains shown)
VH: EVQLVESGGGLVQPGGSLRLSCAASGFTFRSYVMSWFRQAPGKGLEWVSGMSGSGGSTSYADSVKGRFTISRDNSKNTLYLLMNSLRTEDTAVYYCAKENGANWNYGYYGMDVWGQGTTVTVSS
VL: not shown
With B8 the “% Inhibition, HEK293/SRE-Luc Blocking Activity (HGF, 1 h mAb pre-bind)” value (human MET on cells [2]) was 74%, the “EC50, Ligand (HGF)-Independent HEK293/SRE-Luc Activation” value (human MET on cells [2]) was 0.047 nM and the “Fold Response, Ligand (HGF)-Independent HEK293/SRE-Luc Activation” value (human MET on cells [2]) was 2.3 fold. For the same binder, the “IC50, HEK293/SRE-Luc Blocking Activity” value (human MET on cells [2]) was 0.0078 nM, the “% Growth Inhibition, SNU5 cells” value (human MET on cells [3]) was 53% and the “IC50, SNU5 growth” value (human MET on cells [3]) was 0.1 nM.

B9: H1H13316P2 (antibody, IgG1, V domains shown)
VH: EVQLVESGGGLVQPGGSLRLSCAASGFTFRSYVMSWFRQAPGKGLEWVSGMSGSGGSTSYADSVKGRFTISRDNSKNTLYLLMNSLRTEDTAVYYCAKENGANWNYGYYGMDVWGQGTTVTVSS
VL: not shown
B9 was tested, and the “% Inhibition, HEK293/SRE-Luc Blocking Activity (HGF, 1 h mAb pre-bind)” value (human MET on cells [2]) was 86%, the “Fold Response, Ligand (HGF)-Independent HEK293/SRE-Luc Activation” value (human MET on cells [2]) was 1.7 fold and the “IC50, HEK293/SRE-Luc Blocking Activity” value (human MET on cells [2]) was 0.04 nM. The “% Growth Inhibition, SNU5 cells” value (human MET on cells [3]) was 30% and the “IC50, SNU5 growth” value (human MET on cells [3]) was 0.2 nM.

Source: US20220040319A1 (Regeneron, published 2022)
